# Experimental data taken from US20200018762.
# What was measured:
# [1] = target: FLAG-tagged H2B (UniProt P62807)
# [2] = target: FLAG-tagged Y37F mutant-H2B (UniProt P62807)
# [3] = tested on: biotinylated H4-derived unphosphorylated peptide TVTAMDVVYALKRQGRT
# [4] = tested on: biotinylated human histone H2B derived peptide KRSRKESYSVYVYKVL
# [5] = tested on: H2B peptide spanning Tyr37 (Tyr37-H2B; SRKESYSVYVYK)
# [6] = tested on: H2B peptide with a Tyr37-to-Phe mutation (SRKESFSVYVYK)
# [7] = tested on: purified human H2A recombinant protein (NEB)
# [8] = target: purified human H2B recombinant protein (NEB) (UniProt P62807)
# [9] = target: purified human H3 recombinant protein (NEB) (UniProt P68431)
# [10] = target: purified human H4 recombinant protein (NEB) (UniProt P62805)
# Chain of recombinant GST-WEE1 protein (Invitrogen) (chain, as listed by the source): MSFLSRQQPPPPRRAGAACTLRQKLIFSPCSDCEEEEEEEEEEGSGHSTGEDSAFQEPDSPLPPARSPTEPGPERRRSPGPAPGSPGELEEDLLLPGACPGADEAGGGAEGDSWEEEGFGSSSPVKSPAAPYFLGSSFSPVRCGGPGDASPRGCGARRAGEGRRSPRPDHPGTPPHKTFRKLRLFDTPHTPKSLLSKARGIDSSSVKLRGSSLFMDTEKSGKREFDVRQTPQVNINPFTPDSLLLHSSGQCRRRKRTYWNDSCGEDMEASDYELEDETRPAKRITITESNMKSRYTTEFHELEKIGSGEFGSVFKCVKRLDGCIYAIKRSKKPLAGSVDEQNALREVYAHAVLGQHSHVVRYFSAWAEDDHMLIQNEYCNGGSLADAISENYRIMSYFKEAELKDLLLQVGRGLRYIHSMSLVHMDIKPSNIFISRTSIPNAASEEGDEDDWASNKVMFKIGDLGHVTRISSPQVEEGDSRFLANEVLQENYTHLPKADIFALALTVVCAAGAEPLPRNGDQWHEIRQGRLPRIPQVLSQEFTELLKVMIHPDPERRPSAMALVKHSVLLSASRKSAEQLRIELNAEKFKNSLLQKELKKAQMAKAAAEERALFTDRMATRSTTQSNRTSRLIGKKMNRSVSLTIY
# Chain of Myc-tagged WEE1 (WT) (chain, as listed by the source): as above
# Chain of purified WEE1 protein (Examples 5 and 7) (chain, as listed by the source): as above
substance,measurement,setting,value
Myc-tagged WEE1 (WT),"coexpression in MEFs, immunoprecipitation with pTyr37-H2B antibodies, FLAG immunoblot",[1],the WT-WEE1 specifically phosphorylated H2B
same,"coexpression in MEFs, immunoprecipitation with pTyr37-H2B antibodies, FLAG immunoblot",[2],failed to phosphorylate Y37F mutant (FIG. 13G)
purified WEE1 protein (Examples 5 and 7),"in vitro kinase assay on immobilized peptide, ELISA with pY88-H4 antibodies",[3],Incubation of H4 peptide with WEE1 and Ack1 protein resulted in robust H4 Tyr88-phosphorylation
same,"Peptide Immunosandwich Assay (kinase reaction on immobilized peptide, detection with pY37-H2B antibodies, OD 450 nm)",[4],Purified WEE1 exhibited robust H2B Tyr37-phosphorylation and a significant decrease in pY37-H2B levels was observed upon incubation with 5 uM of MK-1775 (FIG. 34)
recombinant GST-WEE1 protein (Invitrogen),"in vitro kinase reaction with peptide, dot blot with pTyr37-H2B antibody",[5],WEE1 phosphorylated H2B peptide
same,"in vitro kinase reaction with peptide, dot blot with pTyr37-H2B antibody",[6],Y37F mutant peptide was not phosphorylated
same,"in vitro kinase assay, immunoblot with pTyr37-H2B antibody",[7],"WEE1 specifically phosphorylated H2B and failed to phosphorylate other three core histones, H2A, H3 and H4 (FIG. 13E)"
same,"in vitro kinase assay, immunoblot with pTyr37-H2B antibody",[8],"When purified WEE1 and H2B were incubated, H2B was Tyr37-phosphorylated, however, WEE1 inhibitor abrogated H2B pTyr37-phosphorylation (FIG. 13D)"
same,"in vitro kinase assay, immunoblot with pTyr37-H2B antibody",[9],"WEE1 specifically phosphorylated H2B and failed to phosphorylate other three core histones, H2A, H3 and H4 (FIG. 13E)"
same,"in vitro kinase assay, immunoblot with pTyr37-H2B antibody",[10],"WEE1 specifically phosphorylated H2B and failed to phosphorylate other three core histones, H2A, H3 and H4 (FIG. 13E)"
